Tests used:
Format in all cases: biochemical, Bacteroides thetaiotaomicron
Details in all cases: 50 mM HEPES pH 7.0, 5 mM MgCl2, 37 °C
[1] = substrate: O=[N+]([O-])c1ccc(OP(=O)(O)O)cc1; test: purified protein
[2] = substrate: Nc1ncnc2c1ncn2[C@@H]1O[C@H](COP(=O)(O)OP(=O)(O)O)[C@@H](O)[C@H]1O; test: initial rates, phosphate release
[3] = substrate: O=P(O)(O)OC[C@H]1O[C@@](CO)(O[C@H]2O[C@H](CO)[C@@H](O)[C@H](O)[C@H]2O)[C@@H](O)[C@@H]1O; test: initial rates, phosphate release
[4] = substrate: O=P(O)(O)OC[C@H]1O[C@H](O[C@H]2O[C@H](CO)[C@@H](O)[C@H](O)[C@H]2O)[C@H](O)[C@@H](O)[C@@H]1O; test: initial rates, phosphate release
[5] = substrate: O=P(O)(O)OCC(O)CO; test: initial rates, phosphate release
[6] = substrate: O=P(O)(O)OC[C@@H](O)[C@@H](O)[C@H](O)[C@@H](O)CO; test: initial rates, phosphate release
[7] = substrate: Cc1ncc(COP(=O)(O)O)c(C=O)c1O; test: initial rates, phosphate release

B1: BT1666 (Bacteroides thetaiotaomicron VPI-5482) (protein)
chain: MIKVLLLDVDGTLLSFETHKVSQSSIDALKKVHDSGIKIVIATGRAASDLHEIDAVPYDGVIALNGAECVLRDGSVIRKVAIPAQDFRKSMELAREFDFAVALELNEGVFVNRLTPTVEQIAGIVEHPVPPVVDIEEMFERKECCQLCFYFDEEAEQKVMPLLSGLSATRWHPLFADVNVAGTSKATGLSLFADYYRVKVSEIMACGDGGNDIPMLKAAGIGVAMGNASEKVQSVADFVTDTVDNSGLYKALKHFGVI
With B1 the Km [1] was 0.51 ± 0.1 mM, the kcat [1] was 0.055 ± 0.007 s⁻¹ and the kcat/Km [1] was 110 M⁻¹ s⁻¹. The Km [2] was 1.0 (± 2) × 10^1 mM, the kcat [2] was 0.45 ± 0.06 s⁻¹ and the kcat/Km [2] was 45 M⁻¹ s⁻¹. For the same protein, the Km [3] was 1.4 ± 0.3 mM, the kcat [3] was 0.11 ± 0.01 s⁻¹ and the kcat/Km [3] was 79 M⁻¹ s⁻¹. It also gave a Km [4] of 2.2 ± 0.4 mM, a kcat [4] of 0.3 ± 0.03 s⁻¹ and a kcat/Km [4] of 140 M⁻¹ s⁻¹. For the same protein, the Km [5] was 5.3 ± 0.7 mM, the kcat [5] was 0.42 ± 0.03 s⁻¹ and the kcat/Km [5] was 79 M⁻¹ s⁻¹. It also gave a Km [6] of 6.5 ± 3 mM, a kcat [6] of 0.42 ± 0.06 s⁻¹ and a kcat/Km [6] of 65 M⁻¹ s⁻¹. The Km [7] was 4.1 ± 0.5 mM, the kcat [7] was 0.29 ± 0.01 s⁻¹ and the kcat/Km [7] was 70 M⁻¹ s⁻¹.

From paper PMC3356575
